17 sequences from the DeepSol protein solubility set can be followed below.

The data set in a line: soluble on expression in E. coli; label from the status in PepcDB or PDB records.
Take “SLLLVIDVGNTNTVLGVYHDGKLEYHWRIETSRHKTEDEFGMILRSLFDHSGLMFEQIDGIIISSVVPPIMFALERMCTKYFHIEPQIVGPGMKTGLNIKYDNPKEVGADRIVNAVAAIHLYGNPLIVVDFGTATTYCYIDENKQYMGGAIAPGITISTEALYSRAAKLPRIEITRPDNIIGKNTVSAMQSGILFGYVGQVEGIVKRMKWQAKQKQKVIATGGLAPLIANESDCIDIVDPFLTLKGLELIYERNRVGSV”: the “soluble on expression in E. coli” value is listed as “soluble”.

For “MYRAWDPSLTTIDSFLVNELLLHAHPTKTPPEVTEGQTPSSSSSSSTDSGRETMLEEEEAACCDLDSELARIGDENTAEIRELCLPLEIDSRCNLCAIVSICLRRDPQQKWLLDYCFLCHKCAAAPRTAMATLIVATEFLHLMKLHFRDIAFDNIFKERIVTIFDFHAHFFINRCYTQRDEHPVMVENITLAHMAVTRALLTDDDAVPYTKRRKIQYKLPKKPAPAEPEELRLLDKYRRATEGSFARVLFYIWSGTNVMFNTTLTDLAIKKSKALKALKTRQSEIEPSVGPVFLSPIPTFRLRNATTTVCLLCELMACSYRDNVFLQQLRERITNYSRNNLKIIDRTQLTMAEILSHGRNSEFPQQLKNKDVSIYVTSSPETLAAASRPGTEEPFELSALTYLVLRQVGVIGVYKHLFADPLCAANMRSTDPNILFFDVPNEYLNEAKLAICSTNAYPSRVERDFWLYAHMFKAFQIIKRNFKTKTQLSDFLRDFSQVLESHDFSLVDPSFTVEKYV”, the “soluble on expression in E. coli” value was “not soluble”.

On to “MSGSDRGDRLYDVLGVTRDATVQEIKTAYRKLALKHHPDKYVDQDSKEVNEIKFKEITAAYEILSDPEKKSHYDLYGDDNGAASSGG”, for which the “soluble on expression in E. coli” value is reported as “not soluble”.

As to “MTDAAEEVLLGKKGCTGVITLNRPKFLNALTLNMIRQIYPQLKKWEQDPETFLIIIKGAGGKAFCAGGDIRVISEAEKAKQKIAPVFFREEYMLNNAVGSCQKPYVALIHGITMGGGVGLSVHGQFRVATEKCLFAMPETAIGLFPDVGGGYFLPRLQGKLGYFLALTGFRLKGRDVYRAGIATHFVDSEKLAMLEEDLLALKSPSKENIASVLENYHTESKIDRDKSFILEEHMDKINSCFSANTVEEIIENLQQDGSSFALEQLKVINKMSPTSLKITLRQLMEGSSKTLQEVLTMEYRLSQACMRGHDFHEGVRAVLIDKDQSPKWKPADLKEVTEEDLNNHFKSLGSSDLKFAENLYFQ”, the “soluble on expression in E. coli” value is on record as “soluble”.

As to “MGRKVKPLASMKKHLTNDERDQRKDAEKALFDYPSLDLTPPDWLHDRALTEWQRVAPYLKANTPISELDRAMLASYCRAYATVQTCENDIRKNGLVQTNQKSGVRKPNPYVALQSQAMKDVKALANDLGMSLSSRARMELNKQKDETPEDTFEAMLS”, the “soluble on expression in E. coli” value was “not soluble”.

As for “MSLWRSTVARAPLDARERKNLVAHVQSAQAHESAQHAELAKLRASVNVMKAAEATPRNDEAGQDSAMIPMAGPGVRIILDDANAAPADELGDKDMRKLVNAVWQSGAEAVAINGHRIGPRTAIRSAGSAITVDYVSLSRPYVVEAIGSPQKLPAELADTPGGRWMTYLRDNSSITYQVTTKDRVSVPGSKASVSHARPHREGHHHHHH”, the “soluble on expression in E. coli” value is “soluble”.

In the case of “MGSDKIHHHHHHMRMERVVERVAVTGAEAVANAMRQIEPDVVAAYPITPQTPIVEYFARFVADGVVRTEMIPVESEHSAMSAVVGAAAAGARAMTATSANGLALMHEIVYIAASYRLPIVMPVVNRALSGPINIHCDHSDAMAERDSGWIQLFAETNQEAYDFTILAVRLAEHEDVRLPVMVNLDGFILSHGVEPVEFYPDELVKKFVGELKPMYPLLDTEHPVTWGPLDLYDYYFEHKRQQIEAMENVKKVFPEIAKEFEETFGRKYWFVEPYRMEDAEHVMVALGSTNSTIKYVVDELREEGYKVGSLKIWMFRPFPKEQLQELLNGRKSVVVLDRAVSFGAEAPLYEAVKSALYEVAARPMLGSYVYGLGGRDIKPEHIRKAFEDAINGNLIADEQRYLGLRE”, the “soluble on expression in E. coli” value is “not soluble”.

Take “MAMKVKEVANLVGISVRTLHHYDEIGLLTPDETTESGYRLYSNENLEMLQQILFFKELGFPLKKIKEIIMSPSFDRKEALQLHKKMLLEKRARLDKVIATIDKTIQHTKGEIEMTNKEKFKGFDFSHNPYEEEARERWGDAAVDKANEYAKGMSKEKQEEFNAIYRNLAALRHGAPDSKEAQEAIKVWYDYLQNFSHYSLDAFKGLGQMYVADERFTKNIDKFGEGLAQFMCDAMEVYADRNK”: the “soluble on expression in E. coli” value was “not soluble”.

On to “TVAVSQIVEHPALDATRQGLLDGLKAKGYEEGKNLEFDYKTAQGNPAIAVQIARQYVGESPDVLVGIATPSAQALVSATRTIPVVFTAVTDPVGAKLVKSMKQPGKNVTGLSDLSPVAQHVELIQEILPQVKSIGVVFNPGEANAVTLVNLLKESAEAKGIKVVEATALKSADVQSATQAIAAKSDILYAPTDNTVASAIEGMIVAANQAKKPVFGGATSYVEKGAIAGLGFDYYQVGVQTADYVAAILDGQEPGKLDVKVATGSDLVINESAASKLGIQLPSSVVQRATSMQ”, for which the “soluble on expression in E. coli” value was “not soluble”.

Regarding “MGSDKIHHHHHHMKKIQIVDDSQSNIRKLENLLNTHFLVTVARTGEEAVRMAKENVPDLILLEVALPDMDGFETCRRLKAQVESAKIPVIFVSSLKEKEAVIKGFEVGGQDYIIKPFEARELVLRMKSLLKQESSRKRLEQHVKVLEEQNEKLKGKIQKVDRLSRVDFLTNLMNRRDMQEKIRAEINRSIRHGRSFTLAIVDIDFFKNINDTYGHDCGDHVLKHFVSTLKNSVRSSDYVSRWGGEEFLLLFPETKLEEGKRACEKIRQKINESPVIYKGMSISITATFGISEYRPSVRIEELIKAADDALYKGKKTGKNQVVVQSM”, the “soluble on expression in E. coli” value is listed as “not soluble”.

“MGSDKIHHHHHHMASVYWIPKLRIIPRTKFVTICPITLTLSLSMQYSPNLAHGTLLRRYKRFLADVLLDDGTEITLHCPNTGSMKNCLFPGETVWFSTSNNPKRKYAHTWEQSSTPDKQLIGINTGRANALAEEAINLGVIKELTGYDRLQREVKYGEENSRIDILLSSDTRASCYIEVKSCTLLEEGSTSGRGYFPDSVTVRGQKHLRELIHMVKQGHRAVLLFVVQHSGINSVSPARHIDVAYSELFTQALDAGVEVLAYQTQMSPQESQILTSCPVIT”: the “soluble on expression in E. coli” value is recorded as “not soluble”.

Take “MIMFNYQQTSQSCVKCGKCIPSCTIYNIHPDEVTSPRGFIDLLGAYQRGELELDKNAKDIFEKCFLCTNCTYVCPNLLPTDQVIENVRAEIAQKFGIAWFKRAYFFLLRNRWLEHHHHHH”: the “soluble on expression in E. coli” value was “soluble”.

“MQQQVAPVPVIGVTADVLQMQANMKSLKSQLTNAPYGDSPLLKYNANPEIDGKSSPASTQRQLRFLAAKKGALSSSSDAQDSSFIIPPISKVMSDLSPAVTRSADVTKDLNYTSKEAPPSLARGLRNSTFNPNMSLTNRSVHESSALDKTIDSALDASMNGTSNRLGVRGSVRRSNLKQLDMSLLADSSRVGRESRVADPDALPRISESERRQDVVTSTPAVDPVQAVIQRHNDRNRDPPSLNLDTTCDEHTGLEPVSAATSSAASVVSTPSEETVNVNSAAGVKLTKPDYFSLPTINEMKNMIKNGRVVLEDGLTVGRSSYGSVYWPGRVELKDVALDEIVVFRHREVTVYPNEEEKAPEGQELNRPAEVTLERVWYTDKKTKKEVRDVVKLSEIGWREHLERQTIRMGAAFKDFRAETGSWVFRVDHFSKYGLADDDEPMDGSPPQQALQASSPLQVIDMNTSARDVNNQVQRKKVHKATDAHHQEIILERVPAPAALGDVVPIIRRVNRKGLGGGTLDDSREESCIGNMTTEFNESGHDSIIEEGQQPEKKPKLELLADLEYESSRFIRNLQELKVMPKANDPAHRFHGGGHSAKMIGYGKSKLIDIGIVKGRSSHVGWSETGCLVWSAQPRHNQVLFGTIDRTSDVNENTLISMLDVNVHVSETSRKGPSSQSNSVKSSLTSNFVTYSDSYSSMFAKYIDVAQAGGYDGHVSVWKLISALFPYERREGWSFERGEEIGEWLRTEAVKSVPDDRSADTSSNGVWNQLCLGDIDKAFQIAIDNNQPQLATMLQTSAVCPEATVHCFKAQLDNWKKCETLHLIPKETLKCYVLMSGLSHYEWDQDGKNHSINCLDGLNWIQALGLHVWYLRAWTGLEESYDAYQKDVNAGRAASNRGDLPGELIKLACESQHSVEVVLDCAAGENPNDYFLQWHVWSLLYSVGYRTMSKTSETRLHRNYSSQLEASSLSKYALFVLQHIDDDEERSTAVRSLLDRIARFTDNDMFDSISEQFDIPSEWIADAQFSIAKSVDDSTQLFELAVAAKNYLEICRLFVDDIAPTAVVAGDHDALKAACAMVRPFENQIPEWGATGMVYTDYCRLINLIENDAEEELLQDVLESLETRLHAPTISKNSLQKLSLQTIGRVLFEYRADKNTLPEWTKLLGHRQMFKIFRDRSSWGIERFTIEFD”: the “soluble on expression in E. coli” value is “not soluble”.

With “MGSDKIHHHHHHMITNQKLKKSLEEIKNITSFDAILYSAKGKHLTGTVEEPEHSDIFVKEFIVSEEDVREKNDAIAFAVEIDSELEYVLVMFCPYTSENLVIGRMAVCQLRTLVLGESERYDRNNFIQNILLGNMLGSDIINRAKKLHIENRKRVVYVIDTGKNSNEIAVELAKNLADIRSGDFVVAMDEHNVVLVKDVEDIDSPKLQEKLSSIAGSLVDNLLAEAMIKVRVGYGNPTDVLPKITESYQEAKMALEVGRLFYVEKEIMAYDRLGIGRLIYQLPMSLCEMFIREVFGDEVPQILDDEEAMSTISKFFENNLNISETARQLYVHRNTLVYRLERIEKSIGLDIRTFDDAMIFKIATMVLAHIKDSRQGR”, the “soluble on expression in E. coli” value was “not soluble”.

Take “SRLLKTDLLEDVFNVENESFMQETELKENEYSVNLRTRFWFRGRAYDGWINLVNPFRATMVLGTPGSGKSYAIINQYIKQTIEKGYSLFLYDFKYPDLSEIAYNHLLAHLDGYKVKPKFYVINFDNPRESHRCNPIHPDFMTDISDAYESAYTIMLNLNRTWISKQGDFFVESPIILLASIIWYLKIYKNGKYCTFPHAIEFLNRKYADIFPILTSYPELENYLSPFMDAWESSAVEQLQGQIASAKIPLSRMISPALYWVMTADDFTLDINNPEEPKVLVVGNNPDRQGIYGAALGLYNSRIVKLINKKKRLKSAVIIDELPTIYMRGLDNLIATARSNKVAVMLGFQDFSQLKRDYGDKESAVICNTVGNVFAGQVVAETAKTLSERFGKVLQKRQNMTINRNETSVSINTQMDSLIPASKISNLTQGMFVGAVADNFDERIEQKIFHAEIVVDNEQVRRETARYVKIPQIIDFTDKDGNDTMQQQIDANYYRIKSEVRQIVADEIGRIKADPELSHLIKDK”: the “soluble on expression in E. coli” value is recorded as “not soluble”.

Regarding “MGSDKIHHHHHHMELQVFTNEQFGEVRTATINNQIYFNLNDCCQILELSNPRKTIERLNKDGVTTSDIIDSLGRTQQANFINESNFYKLVFQSRKPEAEKFADWVTSEVLPSIRKHGAYMTEQTLEQALTSPDFLIRLANELKEEKERSRQLEAEKSILSVENMVMKPKADYFDDLVDRNLLTSFRETAKQLKVKERRFIQFLLDKKYVYRDKKGKLMPFADKNNGLFEVKESVNEKTNWAGTQTLITPKGRETFRLLFI”, the “soluble on expression in E. coli” value is on record as “not soluble”.

As to “MSLNKLLSQLASVEILTPKIDDTLWFFKDILGLHEVGRKDRSVYLRGWEDWYAYSLKVTESDTAGVKEIVWRTYSEKDLIDSINIVNSNGLGLGWDEGEPDMGVGKGYKFILPSGQIGKLVWEMKIWRASGELRSGYKARPMKKPTKGVQAKDLSHIFIFAYNDESLAKTVELLKRLTFKVNEILKEGDKRIAYWMAVNGTAHDLAVSLDPSGVPARLNHVTFNVDYADDILKAADFYTDYGLEIVGGPLRHGITDSHSLYVKEPGGNVIELLHGGYLNVVPDWEPIVWDTKEDENRWLYYWGHVKEAFWHGEGHHHHHH”, the “soluble on expression in E. coli” value is “not soluble”.
